Results published in patent EP0842426B1.

Experiments:
Experiment in all cases: cell-based or functional assay
[1] = molecular target: ecotropic MLV receptor (mouse) (UniProt Q09143)
[2] = molecular target: amphotropic MLV receptor on NIH3T3 mouse fibroblasts (mouse) (UniProt Q80UP8)
[3] = molecular target: human epidermal growth factor receptor (human) (UniProt P00533)
[4] = molecular target: amphotropic receptor on human B and T cell lines (K422 and Jurkat) (human) (UniProt Q08357)
[5] = molecular target: EGF receptor on NIH3T3 cells and NIH3T3 clones transfected with EGF receptor expression constructs

Chain of ecotropic MLV receptor (mouse) (Q09143 whole entry): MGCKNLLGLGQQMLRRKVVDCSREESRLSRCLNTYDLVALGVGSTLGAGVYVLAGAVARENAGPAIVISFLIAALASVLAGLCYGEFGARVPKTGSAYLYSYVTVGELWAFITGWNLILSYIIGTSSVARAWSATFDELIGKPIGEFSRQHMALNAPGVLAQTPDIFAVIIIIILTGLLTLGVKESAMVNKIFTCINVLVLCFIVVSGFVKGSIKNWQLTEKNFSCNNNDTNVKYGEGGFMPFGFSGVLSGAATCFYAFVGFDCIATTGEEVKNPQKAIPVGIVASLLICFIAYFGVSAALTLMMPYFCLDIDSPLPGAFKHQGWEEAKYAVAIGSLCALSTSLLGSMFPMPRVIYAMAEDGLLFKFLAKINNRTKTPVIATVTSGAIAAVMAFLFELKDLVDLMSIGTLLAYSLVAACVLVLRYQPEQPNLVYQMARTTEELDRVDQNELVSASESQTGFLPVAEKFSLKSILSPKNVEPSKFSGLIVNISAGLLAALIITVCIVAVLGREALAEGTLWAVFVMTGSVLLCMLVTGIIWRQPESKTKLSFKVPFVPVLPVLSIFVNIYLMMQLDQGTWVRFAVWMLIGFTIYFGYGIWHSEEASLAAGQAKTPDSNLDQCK
Chain of amphotropic MLV receptor on NIH3T3 mouse fibroblasts (mouse) (Q80UP8 whole entry): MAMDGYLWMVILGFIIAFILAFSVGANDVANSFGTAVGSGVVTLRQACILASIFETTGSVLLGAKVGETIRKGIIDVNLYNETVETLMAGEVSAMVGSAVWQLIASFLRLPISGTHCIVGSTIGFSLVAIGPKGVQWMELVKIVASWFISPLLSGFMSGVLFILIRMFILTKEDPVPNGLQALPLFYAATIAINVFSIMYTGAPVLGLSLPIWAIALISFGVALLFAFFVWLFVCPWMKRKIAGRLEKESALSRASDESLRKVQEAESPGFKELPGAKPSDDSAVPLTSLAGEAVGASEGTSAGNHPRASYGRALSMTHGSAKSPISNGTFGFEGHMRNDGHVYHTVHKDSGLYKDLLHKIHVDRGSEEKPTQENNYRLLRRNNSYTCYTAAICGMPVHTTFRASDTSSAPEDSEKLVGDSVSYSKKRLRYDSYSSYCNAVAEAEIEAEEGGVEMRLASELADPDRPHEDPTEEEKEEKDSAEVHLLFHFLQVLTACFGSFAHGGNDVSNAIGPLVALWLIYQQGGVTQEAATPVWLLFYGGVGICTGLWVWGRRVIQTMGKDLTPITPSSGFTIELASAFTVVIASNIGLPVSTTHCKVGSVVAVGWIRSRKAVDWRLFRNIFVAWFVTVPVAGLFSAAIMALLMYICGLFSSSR
Chain of Moloney MLV ecotropic envelope glycoprotein (control envelope MO) (P03385 34-665 limits assumed): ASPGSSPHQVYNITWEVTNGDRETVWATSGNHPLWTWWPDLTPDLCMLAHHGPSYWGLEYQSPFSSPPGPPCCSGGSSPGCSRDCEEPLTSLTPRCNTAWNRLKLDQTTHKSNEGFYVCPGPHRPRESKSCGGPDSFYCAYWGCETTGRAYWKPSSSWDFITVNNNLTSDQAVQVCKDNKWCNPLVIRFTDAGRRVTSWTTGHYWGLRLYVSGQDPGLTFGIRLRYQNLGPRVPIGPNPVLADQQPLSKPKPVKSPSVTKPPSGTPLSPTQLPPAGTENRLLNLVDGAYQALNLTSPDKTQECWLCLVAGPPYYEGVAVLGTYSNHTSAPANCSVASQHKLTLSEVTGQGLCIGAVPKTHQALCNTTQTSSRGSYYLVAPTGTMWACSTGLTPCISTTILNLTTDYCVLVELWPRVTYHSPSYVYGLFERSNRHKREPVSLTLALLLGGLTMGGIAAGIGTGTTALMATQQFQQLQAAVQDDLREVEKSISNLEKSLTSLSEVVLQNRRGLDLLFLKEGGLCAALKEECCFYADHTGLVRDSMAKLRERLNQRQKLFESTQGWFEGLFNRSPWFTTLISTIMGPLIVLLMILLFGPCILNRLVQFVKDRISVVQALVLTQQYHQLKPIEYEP
Chain of amphotropic receptor on human B and T cell lines (K422 and Jurkat) (human) (Q08357 whole entry): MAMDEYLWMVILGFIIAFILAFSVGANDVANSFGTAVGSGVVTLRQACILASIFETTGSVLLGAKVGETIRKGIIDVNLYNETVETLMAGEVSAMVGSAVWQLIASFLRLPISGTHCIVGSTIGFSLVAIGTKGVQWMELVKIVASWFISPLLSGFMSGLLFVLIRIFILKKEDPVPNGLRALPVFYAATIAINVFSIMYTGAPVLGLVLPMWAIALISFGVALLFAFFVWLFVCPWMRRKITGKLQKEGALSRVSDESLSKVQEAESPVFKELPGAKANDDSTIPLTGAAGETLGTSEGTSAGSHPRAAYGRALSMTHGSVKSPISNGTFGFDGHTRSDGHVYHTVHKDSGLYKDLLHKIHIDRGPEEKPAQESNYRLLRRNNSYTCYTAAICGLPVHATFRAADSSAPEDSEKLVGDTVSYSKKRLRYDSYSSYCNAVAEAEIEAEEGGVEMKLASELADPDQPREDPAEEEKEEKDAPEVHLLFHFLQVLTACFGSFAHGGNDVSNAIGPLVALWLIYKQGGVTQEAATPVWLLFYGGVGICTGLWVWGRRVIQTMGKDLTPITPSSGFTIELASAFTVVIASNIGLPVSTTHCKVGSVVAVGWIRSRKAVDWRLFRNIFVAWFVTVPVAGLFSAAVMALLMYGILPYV

Moloney MLV ecotropic envelope glycoprotein (control envelope MO) (from UniProt P03385 34-665)
titre on 3T3 (NIH3T3), lacZ-EFU/ml [1]: 1e+07 lacZ-EFU/ml
titre on 3T3/A (GP+EAM12, expressing amphotropic envelope), lacZ-EFU/ml [1]: 1e+07 lacZ-EFU/ml
titre on 3T3/E (psi2, expressing MoMLV envelope), lacZ-EFU/ml [1]: < 1 lacZ-EFU/ml
titre on EJ.A1 cells, lacZ-EFU/ml [1]: 1e+06 lacZ-EFU/ml

amphotropic 4070A MLV envelope glycoprotein (control envelope A)
titre on 3T3 (NIH3T3), lacZ-EFU/ml (row shifted by one column) [2]: 1e+07 lacZ-EFU/ml
titre on 3T3/A (GP+EAM12, expressing amphotropic envelope), lacZ-EFU/ml (row shifted by one column) [2]: 100 lacZ-EFU/ml
titre on 3T3/E (psi2, expressing MoMLV envelope), lacZ-EFU/ml (row shifted by one column) [2]: 1e+07 lacZ-EFU/ml

chimaeric EGF-4070A (EA) envelope glycoprotein (human EGF fused to the amphotropic 4070A MLV envelope at position +5) (from UniProt P03385 34-39; P01133 23-1207)
inhibition of viral infection by EGF receptor expression on NR6 cells [3]: 100 fold
titre on NR6-wt hEGF.R cells, + rEGF (pre-incubated with recombinant EGF), lacZ-EFU/ml [3]: 500000 lacZ-EFU/ml
titre on NR6-wt hEGF.R cells, - rEGF, lacZ-EFU/ml [3]: 3000 lacZ-EFU/ml
titre reduction on EGF receptor-positive human cells compared to control viruses with unmodified 4070A envelopes [3]: < 1e+07 fold
titre on Jurkat cells (devoid of EGF.R), lacZ-EFU/ml [4]: 1000 lacZ-EFU/ml
titre on K422 cells (devoid of EGF.R), lacZ-EFU/ml [4]: 10000 lacZ-EFU/ml

chimaeric EMO envelope glycoprotein (human EGF inserted in the Moloney MLV envelope SU glycoprotein at amino acid +6) (from UniProt P03385 34-39; P01133 23-1207; P03385 40-469)
titre on 3T3 (NIH3T3), lacZ-EFU/ml [1]: 100000 lacZ-EFU/ml
titre on 3T3/A (GP+EAM12, expressing amphotropic envelope), lacZ-EFU/ml [1]: 100000 lacZ-EFU/ml
titre on 3T3/E (psi2, expressing MoMLV envelope), lacZ-EFU/ml [1]: < 1 lacZ-EFU/ml
titre on A431 cells with chloroquine, lacZ EFU/ml [3]: 225 lacZ EFU/ml
titre on NR6-wt hEGF.R cells, + rEGF (pre-incubated with recombinant EGF), lacZ-EFU/ml [3]: 100000 lacZ-EFU/ml
titre on NR6-wt hEGF.R cells, - rEGF, lacZ-EFU/ml [3]: 1000 lacZ-EFU/ml
titre on TE671 cells with chloroquine, lacZ EFU/ml [3]: 46 lacZ EFU/ml
reduction of virus titre by EGF.R expression on mouse fibroblasts [5]: < 1000 fold
titre on NIH3T3 cells with EGFR No. 10,000, lacZ-EFU/ml [5]: 100000 lacZ-EFU/ml
titre on NIH3T3 cells with EGFR No. 80,000, lacZ-EFU/ml [5]: 10000 lacZ-EFU/ml
titre on NIH3T3 cells with EGFR No. 400,000, lacZ-EFU/ml [5]: 1000 lacZ-EFU/ml
